Results published in patent US20240409645A1 (DUALYX, published 2024).

T1: human IL-2 receptor (IL-2Rα/IL-2Rβ/γc) (human, UniProt P01589 22-272; P14784 27-551; P31785 23-369)
T1 sequence 1: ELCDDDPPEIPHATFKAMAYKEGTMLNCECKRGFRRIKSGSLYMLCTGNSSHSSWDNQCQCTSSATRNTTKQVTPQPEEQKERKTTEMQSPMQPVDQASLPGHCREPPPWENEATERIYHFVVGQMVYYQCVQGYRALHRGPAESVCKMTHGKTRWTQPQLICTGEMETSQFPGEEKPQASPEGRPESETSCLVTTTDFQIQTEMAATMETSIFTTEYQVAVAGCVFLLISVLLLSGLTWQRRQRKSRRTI
T1 sequence 2: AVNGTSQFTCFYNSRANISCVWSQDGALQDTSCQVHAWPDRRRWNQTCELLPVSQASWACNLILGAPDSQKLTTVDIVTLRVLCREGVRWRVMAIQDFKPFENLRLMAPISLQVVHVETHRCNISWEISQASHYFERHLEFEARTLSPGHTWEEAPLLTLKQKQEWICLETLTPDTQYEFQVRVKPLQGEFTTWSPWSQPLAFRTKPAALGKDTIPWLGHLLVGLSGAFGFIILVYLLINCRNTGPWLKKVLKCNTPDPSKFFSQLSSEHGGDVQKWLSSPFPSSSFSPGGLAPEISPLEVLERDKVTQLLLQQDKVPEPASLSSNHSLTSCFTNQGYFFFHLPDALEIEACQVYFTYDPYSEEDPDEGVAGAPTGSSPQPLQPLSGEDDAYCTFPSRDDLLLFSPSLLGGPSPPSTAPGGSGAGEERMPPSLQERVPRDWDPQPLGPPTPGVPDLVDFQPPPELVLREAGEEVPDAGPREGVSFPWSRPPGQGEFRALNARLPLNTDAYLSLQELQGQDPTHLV
T1 sequence 3: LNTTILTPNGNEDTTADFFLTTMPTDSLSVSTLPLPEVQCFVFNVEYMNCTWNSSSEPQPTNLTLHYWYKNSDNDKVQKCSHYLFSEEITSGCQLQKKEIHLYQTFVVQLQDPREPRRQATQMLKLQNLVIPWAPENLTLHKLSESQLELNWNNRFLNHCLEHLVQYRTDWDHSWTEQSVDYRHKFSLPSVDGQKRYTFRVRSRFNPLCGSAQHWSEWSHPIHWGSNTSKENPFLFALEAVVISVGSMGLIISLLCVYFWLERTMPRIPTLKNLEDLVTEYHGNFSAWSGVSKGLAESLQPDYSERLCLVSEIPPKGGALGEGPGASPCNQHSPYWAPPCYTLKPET


Molecular target: T1, human IL-2 receptor (IL-2Rα/IL-2Rβ/γc)
Experiment: cell-based or functional assay

Binder	EC50 (nM) pSTAT5, NK, human PBMCs	EC50 (nM) pSTAT5, Treg, human PBMCs	Fold Max signal (% pSTAT5+) Treg/NK	Max signal (% pSTAT5+), NK	Max signal (% pSTAT5+), Treg	fold EC50 NK/Treg
DC00053 (other) chain 1: QVQLVESGGGLVQPGGSLRLSCATSGFTFRNNFMSWVRQAPGKGLEWVSTISYGGESTTYAESVKGRFTISRDNAKNTLYLQMNNLKPEDTAVYYCAKATSYDSIRSGSRGQGTQVTVSSGGGGSGGGGSGGGGSEVQLVESGGGLVQTGGSLRLSCAASGGTFSRDAMAWFRQVPGKEREFVALISWSGATTNYADSVKGRFAISRDNGKNTVYLQMNRLKPADTAIYYCAADRRPMGSRSYFEPTEYDDWGQGTQVTVSSGGGGSGGGGSGGGGSDKTHTCPPCPAPEAAGGPSVFLFPPKPKDTLMISRTPEVTCVVVDVSHEDPEVKFNWYVDGVEVHNAKTKPREEQYNSTYRVVSVLTVLHQDWLNGKEYKCKVSNKALGAPIEKTISKAKGQPREPQVYTLPPSRDELTKNQVSLTCLVKGFYPSDIAVEWESNGQPENNYKTTPPVLDSDGSFLLYSKLTVDKSRWQQGNVFSCSVMHEALHNHYTQKSLSLSPGK chain 2: EVQLVESGGGLVQTGGSLRLSCAASGGTFSRDAMAWFRQVPGKEREFVALISWSGATTNYADSVKGRFAISRDNGKNTVYLQMNRLKPADTAIYYCAADRRPMGSRSYFEPTEYDDWGQGTQVTVSSGGGGSGGGGSGGGGSQVQLVESGGGLVQPGGSLRLSCATSGFTFRNNFMSWVRQAPGKGLEWVSTISYGGESTTYAESVKGRFTISRDNAKNTLYLQMNNLKPEDTAVYYCAKATSYDSIRSGSRGQGTQVTVSSGGGGSGGGGSGGGGSQVQLVESGGGLVQAGGSLTLSCAAPGRTFGTDVVGWFRQAPGKEREFVASISRSGDGIYYDDSVKGRFTISRNNAWNTVNLQMNSLKVEDTAVYYCAAGDGWSTYDYWGQGTQVTVSSGGGGSGGGGSGGGGSDKTHTCPPCPAPEAAGGPSVFLFPPKPKDTLMISRTPEVTCVVVDVSHEDPEVKFNWYVDGVEVHNAKTKPREEQYNSTYRVVSVLTVLHQDWLNGKEYKCKVSNKALGAPIEKTISKAKGQPREPQVYTLPPSRDELTKNQVSLTCLVKGFYPSDIAVEWESNGQPENNYKTTPPVLDSDGSFFLYSRLTVDKSRWQQGNVFSCSVMHEALHNHYTQKSLSLSPGK	0.057 nM	0.488 pM	7 fold	13 % pSTAT5+	84 % pSTAT5+	117 fold
DC00055 (other) chain 1: QVQLVESGGGLVQPGGSLRLSCATSGFTFRNNFMSWVRQAPGKGLEWVSTISYGGESTTYAESVKGRFTISRDNAKNTLYLQMNNLKPEDTAVYYCAKATSYDSIRSGSRGQGTQVTVSSGGGGSGGGGSGGGGSEVQLVESGGGLVQTGGSLRLSCAASGGTFSRDAMAWFRQVPGKEREFVALISWSGATTNYADSVKGRFAISRDNGKNTVYLQMNRLKPADTAIYYCAADRRPMGSRSYFEPTEYDDWGQGTQVTVSSGGGGSGGGGSGGGGSDKTHTCPPCPAPEAAGGPSVFLFPPKPKDTLMISRTPEVTCVVVDVSHEDPEVKFNWYVDGVEVHNAKTKPREEQYNSTYRVVSVLTVLHQDWLNGKEYKCKVSNKALGAPIEKTISKAKGQPREPQVYTLPPSRDELTKNQVSLTCLVKGFYPSDIAVEWESNGQPENNYKTTPPVLDSDGSFLLYSKLTVDKSRWQQGNVFSCSVMHEALHNHYTQKSLSLSPGK chain 2: QVQLVESGGGLVQPGGSLRLSCATSGFTFRNNFMSWVRQAPGKGLEWVSTISYGGESTTYAESVKGRFTISRDNAKNTLYLQMNNLKPEDTAVYYCAKATSYDSIRSGSRGQGTQVTVSSGGGGSGGGGSGGGGSQVQLVESGGGLVQAGGSLTLSCAAPGRTFGTDVVGWFRQAPGKEREFVASISRSGDGIYYDDSVKGRFTISRNNAWNTVNLQMNSLKVEDTAVYYCAAGDGWSTYDYWGQGTQVTVSSGGGGSGGGGSGGGGSEVQLVESGGGLVQTGGSLRLSCAASGGTFSRDAMAWFRQVPGKEREFVALISWSGATTNYADSVKGRFAISRDNGKNTVYLQMNRLKPADTAIYYCAADRRPMGSRSYFEPTEYDDWGQGTQVTVSSGGGGSGGGGSGGGGSDKTHTCPPCPAPEAAGGPSVFLFPPKPKDTLMISRTPEVTCVVVDVSHEDPEVKFNWYVDGVEVHNAKTKPREEQYNSTYRVVSVLTVLHQDWLNGKEYKCKVSNKALGAPIEKTISKAKGQPREPQVYTLPPSRDELTKNQVSLTCLVKGFYPSDIAVEWESNGQPENNYKTTPPVLDSDGSFFLYSRLTVDKSRWQQGNVFSCSVMHEALHNHYTQKSLSLSPGK	0.889 nM	< 0.1 pM	3 fold	34 % pSTAT5+	97 % pSTAT5+	> 8890 fold
DC00058 (other) chain 1: QVQLVESGGGLVQPGGSLRLSCATSGFTFRNNFMSWVRQAPGKGLEWVSTISYGGESTTYAESVKGRFTISRDNAKNTLYLQMNNLKPEDTAVYYCAKATSYDSIRSGSRGQGTQVTVSSGGGGSGGGGSGGGGSEVQLVESGGGLVQTGGSLRLSCAASGGTFSRDAMAWFRQVPGKEREFVALISWSGATTNYADSVKGRFAISRDNGKNTVYLQMNRLKPADTAIYYCAADRRPMGSRSYFEPTEYDDWGQGTQVTVSSGGGGSGGGGSGGGGSDKTHTCPPCPAPEAAGGPSVFLFPPKPKDTLMISRTPEVTCVVVDVSHEDPEVKFNWYVDGVEVHNAKTKPREEQYNSTYRVVSVLTVLHQDWLNGKEYKCKVSNKALGAPIEKTISKAKGQPREPQVYTLPPSRDELTKNQVSLTCLVKGFYPSDIAVEWESNGQPENNYKTTPPVLDSDGSFLLYSKLTVDKSRWQQGNVFSCSVMHEALHNHYTQKSLSLSPGK chain 2: QVQLVESGGGLVQAGGSLTLSCAAPGRTFGTDVVGWFRQAPGKEREFVASISRSGDGIYYDDSVKGRFTISRNNAWNTVNLQMNSLKVEDTAVYYCAAGDGWSTYDYWGQGTQVTVSSGGGGSGGGGSGGGGSEVQLVESGGGLVQTGGSLRLSCAASGGTFSRDAMAWFRQVPGKEREFVALISWSGATTNYADSVKGRFAISRDNGKNTVYLQMNRLKPADTAIYYCAADRRPMGSRSYFEPTEYDDWGQGTQVTVSSGGGGSGGGGSGGGGSQVQLVESGGGLVQPGGSLRLSCATSGFTFRNNFMSWVRQAPGKGLEWVSTISYGGESTTYAESVKGRFTISRDNAKNTLYLQMNNLKPEDTAVYYCAKATSYDSIRSGSRGQGTQVTVSSDKTHTCPPCPAPEAAGGPSVFLFPPKPKDTLMISRTPEVTCVVVDVSHEDPEVKFNWYVDGVEVHNAKTKPREEQYNSTYRVVSVLTVLHQDWLNGKEYKCKVSNKALGAPIEKTISKAKGQPREPQVYTLPPSRDELTKNQVSLTCLVKGFYPSDIAVEWESNGQPENNYKTTPPVLDSDGSFFLYSRLTVDKSRWQQGNVFSCSVMHEALHNHYTQKSLSLSPGK	1.87 nM	0.0025 nM	3 fold	34 % pSTAT5+	97 % pSTAT5+	748 fold
DC00057 (other) chain 1: QVQLVESGGGLVQPGGSLRLSCATSGFTFRNNFMSWVRQAPGKGLEWVSTISYGGESTTYAESVKGRFTISRDNAKNTLYLQMNNLKPEDTAVYYCAKATSYDSIRSGSRGQGTQVTVSSGGGGSGGGGSGGGGSEVQLVESGGGLVQTGGSLRLSCAASGGTFSRDAMAWFRQVPGKEREFVALISWSGATTNYADSVKGRFAISRDNGKNTVYLQMNRLKPADTAIYYCAADRRPMGSRSYFEPTEYDDWGQGTQVTVSSGGGGSGGGGSGGGGSDKTHTCPPCPAPEAAGGPSVFLFPPKPKDTLMISRTPEVTCVVVDVSHEDPEVKFNWYVDGVEVHNAKTKPREEQYNSTYRVVSVLTVLHQDWLNGKEYKCKVSNKALGAPIEKTISKAKGQPREPQVYTLPPSRDELTKNQVSLTCLVKGFYPSDIAVEWESNGQPENNYKTTPPVLDSDGSFLLYSKLTVDKSRWQQGNVFSCSVMHEALHNHYTQKSLSLSPGK chain 2: QVQLVESGGGLVQPGGSLRLSCATSGFTFRNNFMSWVRQAPGKGLEWVSTISYGGESTTYAESVKGRFTISRDNAKNTLYLQMNNLKPEDTAVYYCAKATSYDSIRSGSRGQGTQVTVSSGGGGSGGGGSGGGGSEVQLVESGGGLVQTGGSLRLSCAASGGTFSRDAMAWFRQVPGKEREFVALISWSGATTNYADSVKGRFAISRDNGKNTVYLQMNRLKPADTAIYYCAADRRPMGSRSYFEPTEYDDWGQGTQVTVSSGGGGSGGGGSGGGGSQVQLVESGGGLVQAGGSLTLSCAAPGRTFGTDVVGWFRQAPGKEREFVASISRSGDGIYYDDSVKGRFTISRNNAWNTVNLQMNSLKVEDTAVYYCAAGDGWSTYDYWGQGTQVTVSSGGGGSGGGGSGGGGSDKTHTCPPCPAPEAAGGPSVFLFPPKPKDTLMISRTPEVTCVVVDVSHEDPEVKFNWYVDGVEVHNAKTKPREEQYNSTYRVVSVLTVLHQDWLNGKEYKCKVSNKALGAPIEKTISKAKGQPREPQVYTLPPSRDELTKNQVSLTCLVKGFYPSDIAVEWESNGQPENNYKTTPPVLDSDGSFFLYSRLTVDKSRWQQGNVFSCSVMHEALHNHYTQKSLSLSPGK	0.548 nM	0.00208 nM	5 fold	19 % pSTAT5+	89 % pSTAT5+	263 fold
